Source: the supplement of paper PMC10567573

B1: FCHO1 (parent)
chain: DKLALCHLELTRKLQDLIKDVLRY

Variants of: B1
Assay: protein stability index of a GFP-peptide fusion (GPS, HEK-293T) (PSI 1-6); higher = more stable
Settings: c terminus: a fixed tail appended
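Further: lentivirally expressed fusions sorted by FACS into six bins by GFP to DsRed ratio, PSI derived from sequencing read proportions per bin multiplied by bin number.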

Variant | protein stability index
DKLALCHLELTRKLQDSIKDVLRY [L17S] | 2.04
DKLALCHLELTRKLQDRIKDVLRY [L17R] | 2.12
DKLALCHLELTRKLQDGIKDVLRY [L17G] | 3.64
DKLALCHLELTRKLQDQIKDVLRY [L17Q] | 1.35
DKLALCHLELTRKLQDTIKDVLRY [L17T] | 2.71
DKLALCHLELTRKLQDYIKDVLRY [L17Y] | 3.59
DKLALCHWELTRKLQDLIKDVLRY [L8W] | 2
DKLALCHIELTRKLQDLIKDVLRY [L8I] | 1.79
DKLALCHFELTRKLQDLIKDVLRY [L8F] | 2.65
DKLALCHKELTRKLQDLIKDVLRY [L8K] | 2.72
DKLALCHDELTRKLQDLIKDVLRY [L8D] | 2.63
DKLALCHHELTRKLQDLIKDVLRY [L8H] | 3.96
DKLALCHGELTRKLQDLIKDVLRY [L8G] | 2.92
DKLALCHNELTRKLQDLIKDVLRY [L8N] | 2.36
DKLALCHLELSRKLQDLIKDVLRY [T11S] | 2.25
DKLALCHLELNRKLQDLIKDVLRY [T11N] | 1.26
DKLALCHLELFRKLQDLIKDVLRY [T11F] | 3.07
DKLALCHLELDRKLQDLIKDVLRY [T11D] | 3.07
DKLALCHLELMRKLQDLIKDVLRY [T11M] | 2.82
DKLALCHLELQRKLQDLIKDVLRY [T11Q] | 2.8
DKLALCHLELPRKLQDLIKDVLRY [T11P] | 1.51
DKLALCHLELCRKLQDLIKDVLRY [T11C] | 3.34
DKLALCHLELYRKLQDLIKDVLRY [T11Y] | 2.57
DKLALCHLELIRKLQDLIKDVLRY [T11I] | 1.69

Variant | protein stability index
DKLALCHLELERKLQDLIKDVLRY [T11E] | 1.27
DKLALCRLELTRKLQDLIKDVLRY [H7R] | 2.93
DKLALCWLELTRKLQDLIKDVLRY [H7W] | 1.38
DKLALCFLELTRKLQDLIKDVLRY [H7F] | 2.4
DKLALCALELTRKLQDLIKDVLRY [H7A] | 1.84
DKLALCQLELTRKLQDLIKDVLRY [H7Q] | 2.88
DKLALCTLELTRKLQDLIKDVLRY [H7T] | 3.2
DKLALCMLELTRKLQDLIKDVLRY [H7M] | 2.67
DKLALCLLELTRKLQDLIKDVLRY [H7L] | 1.56
DKLALCDLELTRKLQDLIKDVLRY [H7D] | 3.07
DKLALCSLELTRKLQDLIKDVLRY [H7S] | 1.81
DKLALCCLELTRKLQDLIKDVLRY [H7C] | 2.12
DKLALCILELTRKLQDLIKDVLRY [H7I] | 1.49
DKLALCNLELTRKLQDLIKDVLRY [H7N] | 3.01
DKLALCHLELTRKLQCLIKDVLRY [D16C] | 3.11
DKLALCHLELTRKLQVLIKDVLRY [D16V] | 2.92
DKLALCHLELTRKLQILIKDVLRY [D16I] | 2.67
DKLALCHLELTRKLQWLIKDVLRY [D16W] | 2.1
DKLALCHLELTRKLQSLIKDVLRY [D16S] | 2.2
DKLALCHLELTRKLQFLIKDVLRY [D16F] | 2.36
DKLALCHLELTRKLQNLIKDVLRY [D16N] | 3.32
DKLALCHLELTRKLQYLIKDVLRY [D16Y] | 2.42
DKLALCHLELTRKLQMLIKDVLRY [D16M] | 2.46
DKLALCHLELTRKLQPLIKDVLRY [D16P] | 2.15

Variant | protein stability index
DKLALCHLELTRKWQDLIKDVLRY [L14W] | 1.53
DKLALCHLELTRKMQDLIKDVLRY [L14M] | 4.05
DKLALCHLELTRKQQDLIKDVLRY [L14Q] | 2.14
DKLALCHLELTRKPQDLIKDVLRY [L14P] | 2.99
DKLALCHLELTRKNQDLIKDVLRY [L14N] | 2.33
DKLALCHLELTRKKQDLIKDVLRY [L14K] | 1.95
DKLALCHLELTRKEQDLIKDVLRY [L14E] | 2.3
DKLALCHLELTRKCQDLIKDVLRY [L14C] | 3.78
DKLALCHLELTRKFQDLIKDVLRY [L14F] | 1.12
DKLALCHLELTRKYQDLIKDVLRY [L14Y] | 1.49
DKLALCHLELTRKHQDLIKDVLRY [L14H] | 1.88
DKLALCHLELTRKRQDLIKDVLRY [L14R] | 2.6
DKLALCHLELTRKGQDLIKDVLRY [L14G] | 1.53
DKLALCHLELTRKSQDLIKDVLRY [L14S] | 2.13
DKLALCHLELTRKDQDLIKDVLRY [L14D] | 3.23
DKLALCHLELTRKIQDLIKDVLRY [L14I] | 3.06
DKLALCHLELTTKLQDLIKDVLRY [R12T] | 1.94
DKLALCHLELTNKLQDLIKDVLRY [R12N] | 2.54
DKLALCHLELTHKLQDLIKDVLRY [R12H] | 2.98
DKLALCHLELTQKLQDLIKDVLRY [R12Q] | 2.9
DKLALCHLELTYKLQDLIKDVLRY [R12Y] | 2.6
DKLALCHLELTAKLQDLIKDVLRY [R12A] | 1.42
DKLALCHLELTDKLQDLIKDVLRY [R12D] | 2.92
DKLALCHLELTWKLQDLIKDVLRY [R12W] | 2.44

Variant | protein stability index
DKLALCHLELTGKLQDLIKDVLRY [R12G] | 2.7
DKLALCHLELTPKLQDLIKDVLRY [R12P] | 1.53
DKLALCHLELTVKLQDLIKDVLRY [R12V] | 1.83
DKLALCHLELTIKLQDLIKDVLRY [R12I] | 2.33
DKLALCHLELTSKLQDLIKDVLRY [R12S] | 2.56
DKLALCHLELTCKLQDLIKDVLRY [R12C] | 2.23
DKLALCHLELTMKLQDLIKDVLRY [R12M] | 1.99
DKLALCHLELTEKLQDLIKDVLRY [R12E] | 1.54
DKLALCHLELTRKLQDLDKDVLRY [I18D] | 2.98
DKLALCHLELTRKLQDLAKDVLRY [I18A] | 2.71
DKLALCHLELTRKLQDLCKDVLRY [I18C] | 2.17
DKLALCHLELTRKLQDLFKDVLRY [I18F] | 3.1
DKLALCHLELTRKLQDLEKDVLRY [I18E] | 3.6
DKLFLCHLELTRKLQDLIKDVLRY [A4F] | 2.01
DKLPLCHLELTRKLQDLIKDVLRY [A4P] | 2.33
DKLLLCHLELTRKLQDLIKDVLRY [A4L] | 1.98
DKLSLCHLELTRKLQDLIKDVLRY [A4S] | 1.81
DKLCLCHLELTRKLQDLIKDVLRY [A4C] | 2.52
DKLILCHLELTRKLQDLIKDVLRY [A4I] | 3.21
DKLGLCHLELTRKLQDLIKDVLRY [A4G] | 1.6
DKLQLCHLELTRKLQDLIKDVLRY [A4Q] | 3.43
DKLWLCHLELTRKLQDLIKDVLRY [A4W] | 3.22
